According to patent publication US20250066490A1, “ANTI-CD70 ANTIBODIES, CONJUGATES THEREOF AND METHODS OF USING THE SAME” (ProfoundBio US Co., priority 2021, published 2025):

T1: CD70 ECD (Homo sapiens, UniProt P32970)
T1 sequence (P32970 39-193 limits assumed): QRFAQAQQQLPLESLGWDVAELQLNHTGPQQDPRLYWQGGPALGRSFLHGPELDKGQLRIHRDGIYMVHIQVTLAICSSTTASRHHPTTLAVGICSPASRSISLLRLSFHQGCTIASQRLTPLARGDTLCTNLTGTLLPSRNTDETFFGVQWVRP


Legend:
786-O cells = assay: Internalization by FACS immune-fluorescence staining, 786-O; type: cell-based, human; settings: based on the cell binding affinity
Procedure: (§1) Briefly, 2×10^5 cells were harvested from a tissue culture flask by treatment with 0.25% Trypsin/EDTA and then incubated with 10 μg/ml of the lead antibodies or control antibodies in FACS buffer (1×PBS with 0.1% BSA) for 30 mins at 4° C. The cells were washed at 4° C. to remove unbound antibodies and kept on ice or shifted to 37° C. At the set time points (0 h, 4 h, 24 h), cells were incubated with PE-conjugated anti human Fc (Abcam, Ab98596) for 30 mins at 4° C. and then analyzed by flow cytometry. The internalization ratio was calculated by subtracting the 37° C. MFI from the 4° C. MFI, and then compared with 4° C. MFI.
(§2) Four cell lines ([…]), Caki-1, Raji, MCF-7) were utilized in the internalization assay. Target (CD70) copy numbers were determined via the QIFIKIT (DAKO, K0078). Briefly, cells were labeled with a primary mouse monoclonal antibody against CD70. Cells, Set-up beads, Calibration beads (from the kit) were then labeled in parallel with a fluorescein-conjugated anti-mouse secondary antibody. The fluorescence is correlated with the number of bound primary antibody molecules on the cells and on the beads. Samples were subsequently analyzed on the flow cytometer and copy number determined based on the calibration curve (Table 11). For internalization assay, 3×10^5 cells were incubated at 4° C. for 30 min with 10 µg/ml 2E7 in FACS buffer (1×PBS containing 0.1% BSA). Cells were washed at 4° C. to remove unbound material and kept on ice or shifted to 37° C. for different lengths of time. At progressive timepoints ([…], 0.5, 1, 2, 3, 4 hr) cells were stained with PE-conjugated anti-human Fc for 30 min at 4° C. and analyzed by flow cytometry. Internalization rate were calculated by subtracting the mean fluorescence intensity (MFI) of cell surface-bound antibody at 37° C. at each time point from the MFI of cell surface-bound antibody at 4° C. at time 0, then divided by the MFI of the cell surface-bound antibody at 4° C. at time 0.

Caki-1 cells = assay: Internalization by FACS immune-fluorescence staining, Caki-1; type: cell-based, human; settings: Caki-1, based on the cell binding affinity
Procedure: as §1, §2

[1] = tested on: cynomolgus CD70 recombinant protein; assay: Antibody binding ELISA, cynomolgus CD70; settings: full IgG, FIG. 3
Procedure: The binding specificity of the CD70 antibodies was tested by ELISA according to a standard protocol. Briefly, 96-well micro-plates were coated with 2 μg/ml of human or cynomolgus CD70 recombinant protein in PBS at 100 μl per well and incubated overnight at 4° C. The plates were washed twice with TBS+0.5% Tween20. 200 μL of blocking buffer (2% BSA in PBS) was added to each well, and the plates were incubated at 37° C. for 2 hours. The plates were washed using the wash buffer mentioned above. Serially diluted antibodies were added to the ELISA plates using 100 μl per well, and the plates were incubated for 1 hour at room temperature. Then plates were washed 3 times. HRP conjugated anti-human Fc antibody solution (Sigma, I18885-2ML, diluted with blocking buffer) was added to the plates using 100 μl per well. The plates were incubated at room temperature for 1 hour and then washed 3 times. Then the TMB solution was added to plates using 100 μl per well and the plates were placed at RT for 5-15 mins. Then the stop solution (2M H2SO4) was added using 50 μl per well. The absorbance was measured at A450 and A630.

CD70 ECD = target: T1, CD70 ECD; assay: Biacore affinity measurement on immobilized CD70 ECD; type: binding; settings: 25° C., CD70 immobilized
Procedure: The immobilization of antigen CD70 ECD was performed at 25° C. with HBS-EP as the running buffer. Sensor chip surface of flow cells 1, 4 were activated by freshly mixed 50 mmol/L N-Hydroxy succinimide (NHS) and 200 mmol/L 1-ethyl-3-(3-dimethylaminopropyl) carbodiimide hydrochloride (EDC) for 420s (10 μL/min). Afterwards, CD70 antigen diluted in 10 mmol/L NaAC (pH 4.5) was injected into flow cell 4 to achieve conjugation of the appropriate Response Unit, while flow cell 1 was set as a blank. After the amine coupling reaction, the remaining active coupling sites on chip surface were blocked by 420s injection of 1 mol/L ethanolamine hydrochloride.
The assay was performed at 25° C. and the running buffer was HBS-EP. Diluted antibodies were injected over the surface of flow cells 1 and 4 during the association phase, followed by injecting running buffer as the dissociation phase. All the data were processed using Biacore T200 Evaluation software version 3.1. Flow cell 1 and a blank injection of buffer in each cycle were used as a double reference for Response Units subtraction. Kinetic data of the interaction between the antibodies and CD70 antigen were obtained through affinity measurement.

[2] = tested on: 786-O, Caki-1, U251 and DBTRG-05MG cells; assay: Antibody binding by flow cytometry, statements across all four tumor cell lines; design: species or system human; settings: four cell lines
Procedure: The lead antibodies were tested for binding to renal carcinoma cells and glioblastoma cells expressing CD70 on the cell surface by flow cytometry. Cell lines 786-O (ATCC® CRL-1932™, provided by COBIOER), Caki-1 (ATCC® HTB-46™, provided by COBIOER), U251 and DBTRG-05MG (ATCC® CRL-2020™, provided by COBIOER) were each tested for antibody binding. 786-O cells were cultured with RPMI 1640 medium (Gibco, Cat #11875093) containing of 10% FBS (Gibco, Cat #10099141) while Caki-1 cells were cultured with McCoy's 5a Modified medium (Gibco, Cat #16600082) containing 10% FBS. U251 cells were cultured with MEM medium containing of 10% FBS and 1% NEAA+1 mM sodium pyruvate. DBTRG-05MG cells were cultured with DMEM medium (Gibco, Cat #C11995500BT) containing of 10% FBS. Each of the lead antibodies and the controls were incubated for 30 mins with the different cell lines (3×10^5 cells per well) in 0.2 ml FACS buffer (1×PBS with 0.1% BSA) at 4° C. Then, the cells were pelleted, washed, and incubated at 4° C. for 30 mins with 100 μl of 1:200 diluted PE-conjugated anti human Fc (Abcam, Ab98596) in FACS buffer. The cells were pelleted again, washed with PBS, resuspended in FACS buffer and analyzed by flow cytometer (Beckman, CytoFLEX).

[3] = Hydrophobic interaction chromatography (HIC); type: physicochemical; settings: full IgG; for Retention time: hydrophobicity by HIC
Procedure: Antibodies were purified from cleared cell culture supernatants using Protein A chromatography (Protein A resin slurry, 4.5 mL, Bogen, Cat #18-0010-02). Briefly, supernatants were prepared for affinity chromatography and loaded onto the columns and allowed to flow completely through the resin. The columns were washed with binding buffer containing 0.15M NaCl and 0.2M PB, PH7.0. Antibody was eluted with elution buffer containing 0.15M NaCl, 0.1M Glycine and 0.2M PB, PH 3.0. Fractions were collected and neutralized by the addition of 1/10 volume of 1M Tris, PH9.0. The fractions were dialyzed for 2 hours against 1×PBS. Purified antibody was quantified by absorbance at A280. Samples from each step of the protein A chromatography were applied onto 12% SDS-PAGE gels for reduced and non-reduced electrophoresis. The hydrophobicity was assessed with hydrophobic interaction chromatography (HIC) on a TSK gel Butyl-NPR, 4.6×100 mm with Butyl-NPR (Tosoh corporation) using a Waters HPLC 2695 system.

| Rmax (RU) (CD70 ECD) | ka (CD70 ECD) | kd (CD70 ECD) | Molecule | absolute amount of antibody internalized into cell vs parent antibody 69A7 (786-O cells) | absolute amount of antibody internalized into cell vs parent antibody 69A7 (Caki-1 cells) | cross binding activity to the cyno-antigen [1] | binding ability to the cell lines compared with antibody 69A7 [2] | hydrophobicity compared with the parent antibody 69A7 ([3]; HIC) | Retention time [3] |
| --- | --- | --- | --- | --- | --- | --- | --- | --- | --- |
| 38.81 RU | 25600 M⁻¹ s⁻¹ | 0.00112 s⁻¹ | 1H8: anti-CD70 antibody clone, VH SEQ 5 and VL SEQ 6; scFv and full human IgG1/kappa (antibody, V domains shown) VH: QVQLQESGPGLVKPSETLSLTCTVSGGSVSSDYYYWSWIRQPPGKGLEWLGYIYYSGSTNYNPSLKSRVTISVDTSKNQFSLKLRSVTTADTAVYYCARGDGDFMGVCFDYWGQGTLVTVSS VL: EIVLTQSPATLSLSPGERATLSCRASQSVSSYLAWYQQKPGQAPRLLIFDASNRATGIPARFSGSGSGTDFTLTISSLEPEDFAVYYCQQRSNWPLTFGGGTKVEIK | higher absolute amount of antibody internalized into cell than the parent antibody 69A7 | higher absolute amount of antibody internalized into cell than the parent antibody 69A7 | better cross binding activity to the cyno-antigen than antibody 69A7 | slightly higher binding ability to the cell lines than that of antibody 69A7 | slightly more hydrophobic than the parent antibody 69A7 | 10.24 min |
| 38.83 RU | 11700 M⁻¹ s⁻¹ | 0.00105 s⁻¹ | 2D2: anti-CD70 antibody clone, VH SEQ 9 and VL SEQ 10; scFv and full human IgG1/kappa (antibody, V domains shown, left off: another chain or arm of the molecule; large carriers; small tags and cut ends, scFv and full human IgG1/kappa) VH: QVQLQESGPGLVKPSETLSLTCTVSGGSVSSDYYYWSWIRQPPGKGLEWLGYIYYSGSTNYNPSLKSRVTISVDTSKNQFSLKLRSVTTADTAVYYCARGDGDYGGNCFDYWGQGTLVTVSS VL: EIVLTQSPATLSLSPGERATLSCRASQSVSSYLAWYQQKPGQAPRLLIFDASNRATGIPARFSGSGSGTDFTLTISSLEPEDFAVYYCQQRLKFPLTFGGGTKVEIK | higher absolute amount of antibody internalized into cell than the parent antibody 69A7 | higher absolute amount of antibody internalized into cell than the parent antibody 69A7 | better cross binding activity to the cyno-antigen than antibody 69A7 | slightly higher binding ability to the cell lines than that of antibody 69A7 | – | 8.81 min |
